The source of these data is article PMC8467750.

In assay [1] the target is histamine H4 receptor fused C-terminally to the small fragment of NanoLuc (H4R–NlucC) (human) (UniProt Q9H3N8). The assay can be described thus: split reporter (BiFC, NanoBiT); split-NanoLuc mini-G protein recruitment assay in live HEK293T cells transiently co-expressing receptor–NlucC and NlucN–mini-G; recruitment upon histamine (serial dilutions), 37 °C, L-15 medium with 10 mM HEPES, furimazine; AUC of 45 min traces normalised to 100 µM histamine in the canonical system (H2R–mGs or H4R–mGsi, 100%) and L-15 (0%); N = 3, each in triplicate.

For assay [2], the target named is histamine H2 receptor fused C-terminally to the small fragment of NanoLuc (H2R–NlucC) (human) (UniProt P25021). The assay is described as above.
Sequence of UniProt P25021 (P25021 whole entry, the tested form may be a part): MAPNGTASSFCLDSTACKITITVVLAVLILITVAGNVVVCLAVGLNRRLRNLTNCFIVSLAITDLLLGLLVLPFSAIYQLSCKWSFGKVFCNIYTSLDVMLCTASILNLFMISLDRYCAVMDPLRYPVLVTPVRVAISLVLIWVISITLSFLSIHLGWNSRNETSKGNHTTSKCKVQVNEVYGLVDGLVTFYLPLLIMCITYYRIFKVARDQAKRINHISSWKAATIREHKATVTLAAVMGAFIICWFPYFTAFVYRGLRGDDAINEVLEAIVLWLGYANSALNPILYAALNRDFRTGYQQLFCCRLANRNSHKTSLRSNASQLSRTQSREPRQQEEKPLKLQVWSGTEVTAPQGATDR

Sequence of UniProt Q9H3N8 (Q9H3N8 whole entry, the tested form may be a part): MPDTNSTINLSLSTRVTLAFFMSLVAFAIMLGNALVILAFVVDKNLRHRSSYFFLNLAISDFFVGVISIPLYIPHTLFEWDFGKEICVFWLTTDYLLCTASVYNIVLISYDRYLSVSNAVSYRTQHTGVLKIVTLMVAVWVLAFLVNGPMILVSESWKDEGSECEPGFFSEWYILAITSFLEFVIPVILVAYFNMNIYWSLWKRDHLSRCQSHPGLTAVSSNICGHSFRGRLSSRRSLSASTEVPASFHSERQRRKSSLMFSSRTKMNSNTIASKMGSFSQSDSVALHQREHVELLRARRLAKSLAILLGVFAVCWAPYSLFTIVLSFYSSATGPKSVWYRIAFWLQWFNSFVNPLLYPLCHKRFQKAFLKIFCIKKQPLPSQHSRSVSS

With “mini-G protein mGs fused N-terminally to the large fragment of NanoLuc (NlucN–mGs)”, in assay [1], the Emax of histamine (mini-G recruitment) was -13.5%. Besides, in assay [2], the Emax of histamine (mini-G recruitment) turned out to be 100% and the pEC50 of histamine (mini-G recruitment) was 6.86.
Turning to “mini-G protein mGsi fused N-terminally to the large fragment of NanoLuc (NlucN–mGsi)”, in assay [1], the Emax of histamine (mini-G recruitment) turned out to be 100% and the pEC50 of histamine (mini-G recruitment) is 6.6. Moreover, in assay [2], the Emax of histamine (mini-G recruitment) was found to be 26.8% and the pEC50 of histamine (mini-G recruitment) was 5.3.
Turning to “mini-G protein mGsq fused N-terminally to the large fragment of NanoLuc (NlucN–mGsq)”, the Emax of histamine (mini-G recruitment) in assay [1] worked out at 13.8%. Besides, in assay [2], the Emax of histamine (mini-G recruitment) came to 29.6% and the pEC50 of histamine (mini-G recruitment) is 5.48.
